The text below walks through data of article PMC3585358, “Identification and Multidimensional Optimization of an Asymmetric Bispecific IgG Antibody Mimicking the Function of Factor VIII Cofactor Activity” (PLoS ONE, 2013).

The target in one assay is T1, human factor IXa (Homo sapiens, UniProt P00740).
T1 construct: also called FIXa; source: bought: Enzyme Research Laboratories (purified human coagulation factors; the source is stated for the enzymatic assay)
Kind of assay: SPR; Biacore T200; anti-FIXa or anti-FX monospecific antibodies captured on MabSelect SuRe Ligand (recombinant Protein A) immobilized on a CM4 chip; natalizumab (human IgG4) on the reference cell; 0, 80, 160, 320, 640 or 1,280 nM human FIXa or FX injected at 30 uL/min; 10 mM HEPES pH 7.4, 150 mM NaCl, 0.05% surfactant P20, 2.5 mM CaCl2. The conditions noted are these: both partners purified. A general note: In SPR one partner is held on a chip, and binding of the other changes the refractive index at the surface.

In another assay the target is T2, human factor X (Homo sapiens, UniProt P00742).
T2 construct: human coagulation factor X (zymogen), light chain; also called FX; source: bought: Enzyme Research Laboratories (purified human coagulation factors; the source is stated for the enzymatic assay)
T2 sequence (P00742 41-179, chain 1 of 2): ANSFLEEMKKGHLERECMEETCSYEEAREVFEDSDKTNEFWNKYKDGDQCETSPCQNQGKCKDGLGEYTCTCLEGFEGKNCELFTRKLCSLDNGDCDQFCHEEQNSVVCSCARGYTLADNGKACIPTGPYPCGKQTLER
T2 sequence (P00742 183-488, chain 2 of 2): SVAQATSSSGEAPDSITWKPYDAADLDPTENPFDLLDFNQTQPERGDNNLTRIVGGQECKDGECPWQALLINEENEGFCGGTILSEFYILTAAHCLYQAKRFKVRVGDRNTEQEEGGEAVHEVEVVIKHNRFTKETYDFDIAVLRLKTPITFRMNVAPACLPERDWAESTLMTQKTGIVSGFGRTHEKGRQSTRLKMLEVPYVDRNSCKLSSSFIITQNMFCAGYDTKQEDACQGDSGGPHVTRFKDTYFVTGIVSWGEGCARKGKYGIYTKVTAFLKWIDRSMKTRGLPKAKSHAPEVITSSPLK
Described as above. The conditions noted are these: both partners purified.

T1 sequence (P00740 47-191, chain 1 of 2): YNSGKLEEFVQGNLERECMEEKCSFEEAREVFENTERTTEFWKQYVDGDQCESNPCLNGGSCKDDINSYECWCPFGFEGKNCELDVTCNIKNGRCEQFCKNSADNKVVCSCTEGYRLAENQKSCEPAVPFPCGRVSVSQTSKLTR
T1 sequence (P00740 227-461, chain 2 of 2): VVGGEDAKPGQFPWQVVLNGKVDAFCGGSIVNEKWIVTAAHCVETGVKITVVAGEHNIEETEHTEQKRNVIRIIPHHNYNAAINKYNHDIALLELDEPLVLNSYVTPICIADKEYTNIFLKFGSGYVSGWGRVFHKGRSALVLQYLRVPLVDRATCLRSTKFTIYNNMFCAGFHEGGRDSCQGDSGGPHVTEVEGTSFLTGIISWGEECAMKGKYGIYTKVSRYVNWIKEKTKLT

B1: anti-FIXa monospecific IgG of hBS910 (anti-FIXa heavy chain and common light chain) (antibody, V domains shown)
VH: QVQLVESGGGLVQPGGSLRLSCAASGFTFSYYDIQWVRQAPGKGLEWVSSISPSGQSTYYRREVKGRFTISRDNSKNTLYLQMNSLRAEDTAVYYCARRTGREYGGGWYFDYWGQGTLVTVSS
VL: DIQMTQSPSSLSASVGDRVTITCKASRNIERQLAWYQQKPGQAPELLIYQASRKESGVPDRFSGSRYGTDFTLTISSLQPEDIATYYCQQYSDPPLTFGGGTKVEIK
notes: as the anti-FIXa heavy chain of m1; as the common light chain of m1; The SPR methods say that monospecific antibodies were captured; also called monospecific anti-FIXa antibody; anti-FIXa homodimeric antibody; source: HEK293 cells, transfected; filtrated culture supernatants or Protein A purified antibodies; copies: 2 + 2
For B1, the binding result with human factor IXa is “binds”.

B2: anti-FX monospecific IgG of hBS910 (anti-FX heavy chain and common light chain) (antibody, V domains shown)
VH: QVQLVQSGSELKKPGASVKVSCKASGYTFTDNNMDWVRQAPGQGLEWMGDINTRSGGSIYNEEFQDRVIMTVDKSTDTAYMELSSLRSEDTATYHCARRKSYGYYLDEWGEGTLVTVSS
VL: DIQMTQSPSSLSASVGDRVTITCKASRNIERQLAWYQQKPGQAPELLIYQASRKESGVPDRFSGSRYGTDFTLTISSLQPEDIATYYCQQYSDPPLTFGGGTKVEIK
notes: as the anti-FX heavy chain of m1; as the common light chain of m1; The SPR methods say that monospecific antibodies were captured; also called monospecific anti-FX antibody; anti-FX homodimeric antibody; source: HEK293 cells, transfected; filtrated culture supernatants or Protein A purified antibodies; copies: 2 + 2
For B2, the binding result with human factor X was “binds”.
